Experimental findings from patent publication US10941182 (Amgen, dated 2021) are described below.

Starred links: 1 amine or outer side, 2 acyl side, 3 side chain; linkers in the order of their positions; H or OH if unused. Non-standard residues stand in square brackets, D forms with d. *: point of attachment. dBip = N[C@H](Cc1ccc(-c2ccccc2)cc1)C(=O)O; Oic = O=C(O)[C@@H]1C[C@@H]2CCCC[C@@H]2N1; Phe(4-Cl) = N[C@@H](Cc1ccc(Cl)cc1)C(=O)O; Phe(4-I) = N[C@@H](Cc1ccc(I)cc1)C(=O)O; γGlu = O=C(O)[C@H](CCC(=O)[*:2])N[*:1]; Tridecanoyl = CCCCCCCCCCCCC(=O)*; hArg = N=C(N)NCCCC[C@H](N)C(=O)O; Cha = N[C@@H](CC1CCCCC1)C(=O)O; NMeL = CN[C@@H](CC(C)C)C(=O)O; Tle = CC(C)(C)[C@H](N)C(=O)O; Nle = CCCC[C@H](N)C(=O)O; AEEA = NCCOCCOCC(=O)O

The target in one assay is T1, human APJ receptor (human, UniProt P35414 1-380).
T1 sequence (looked up): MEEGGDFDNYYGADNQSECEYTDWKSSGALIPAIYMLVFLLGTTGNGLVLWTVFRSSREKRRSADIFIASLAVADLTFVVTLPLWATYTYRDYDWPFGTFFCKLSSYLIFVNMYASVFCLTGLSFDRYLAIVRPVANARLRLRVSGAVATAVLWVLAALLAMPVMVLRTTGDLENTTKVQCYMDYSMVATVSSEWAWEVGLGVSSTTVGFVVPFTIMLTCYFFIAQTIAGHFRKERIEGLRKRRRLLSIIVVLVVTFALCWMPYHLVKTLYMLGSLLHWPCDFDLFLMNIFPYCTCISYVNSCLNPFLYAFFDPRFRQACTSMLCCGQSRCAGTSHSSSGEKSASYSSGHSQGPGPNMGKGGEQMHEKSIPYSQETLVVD
The assay can be described thus: cell-based or functional assay.

A further assay deals with T2, rat APJ receptor (rat, UniProt Q9JHG3 1-377).
T2 sequence (looked up): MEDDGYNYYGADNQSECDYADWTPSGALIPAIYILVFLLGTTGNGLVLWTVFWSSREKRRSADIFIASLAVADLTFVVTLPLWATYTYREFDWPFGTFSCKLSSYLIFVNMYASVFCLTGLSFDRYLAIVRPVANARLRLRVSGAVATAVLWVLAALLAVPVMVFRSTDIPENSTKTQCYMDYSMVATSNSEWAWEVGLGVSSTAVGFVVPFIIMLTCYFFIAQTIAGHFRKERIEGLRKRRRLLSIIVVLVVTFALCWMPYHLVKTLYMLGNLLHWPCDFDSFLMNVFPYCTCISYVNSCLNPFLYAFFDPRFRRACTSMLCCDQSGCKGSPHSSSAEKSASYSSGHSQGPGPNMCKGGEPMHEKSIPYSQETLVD
Kind of assay: cell-based or functional assay.

B1: Apelin polypeptide SEQ ID NO: 332 (peptide)
peptide: Tridecanoyl-[γGlu][AEEA][AEEA][Nle][dR]Q[hArg]P[dR][NMeL]AAKG[Oic][Phe(4-I)]P[dBip]-OH
SMILES: CCCCCCCCCCCCC(=O)N[C@@H](CCC(=O)NCCOCCOCC(=O)NCCOCCOCC(=O)N[C@@H](CCCC)C(=O)N[C@H](CCCNC(=N)N)C(=O)N[C@@H](CCC(N)=O)C(=O)N[C@@H](CCCCNC(=N)N)C(=O)N1CCC[C@H]1C(=O)N[C@H](CCCNC(=N)N)C(=O)N(C)[C@@H](CC(C)C)C(=O)N[C@@H](C)C(=O)N[C@@H](C)C(=O)N[C@@H](CCCCN)C(=O)NCC(=O)N1[C@H](C(=O)N[C@@H](Cc2ccc(I)cc2)C(=O)N2CCC[C@H]2C(=O)N[C@H](Cc2ccc(-c3ccccc3)cc2)C(=O)O)C[C@@H]2CCCC[C@@H]21)C(=O)O
For B1, the “EC50 Human APJ Receptor (GTPγS assay)” value in the assay with human APJ receptor worked out at 40 nM. Further, the “EC50 Rat APJ Receptor (GTPγS assay)” value in the assay with rat APJ receptor stood at 50.5 nM.

B2: Apelin polypeptide SEQ ID NO: 342 (peptide)
peptide: Tridecanoyl-[γGlu][AEEA][AEEA][Nle]QRP[hArg][Cha]SAKG[Oic][Nle]P[Phe(4-Cl)]-OH
SMILES: CCCCCCCCCCCCC(=O)N[C@@H](CCC(=O)NCCOCCOCC(=O)NCCOCCOCC(=O)N[C@@H](CCCC)C(=O)N[C@@H](CCC(N)=O)C(=O)N[C@@H](CCCNC(=N)N)C(=O)N1CCC[C@H]1C(=O)N[C@@H](CCCCNC(=N)N)C(=O)N[C@@H](CC1CCCCC1)C(=O)N[C@@H](CO)C(=O)N[C@@H](C)C(=O)N[C@@H](CCCCN)C(=O)NCC(=O)N1[C@H](C(=O)N[C@@H](CCCC)C(=O)N2CCC[C@H]2C(=O)N[C@@H](Cc2ccc(Cl)cc2)C(=O)O)C[C@@H]2CCCC[C@@H]21)C(=O)O
Regarding B2, the “EC50 Human APJ Receptor (GTPγS assay)” value with human APJ receptor stood at 0.803 nM. The “EC50 Rat APJ Receptor (GTPγS assay)” value with rat APJ receptor was found to be 0.684 nM.

B3: Apelin polypeptide SEQ ID NO: 316 (peptide)
peptide: Tridecanoyl-[γGlu][AEEA][AEEA][hArg][dR]Q[Nle]P[dR][NMeL]SHKG[Oic][Phe(4-I)]P[dBip]-OH
SMILES: CCCCCCCCCCCCC(=O)N[C@@H](CCC(=O)NCCOCCOCC(=O)NCCOCCOCC(=O)N[C@@H](CCCCNC(=N)N)C(=O)N[C@H](CCCNC(=N)N)C(=O)N[C@@H](CCC(N)=O)C(=O)N[C@@H](CCCC)C(=O)N1CCC[C@H]1C(=O)N[C@H](CCCNC(=N)N)C(=O)N(C)[C@@H](CC(C)C)C(=O)N[C@@H](CO)C(=O)N[C@@H](Cc1c[nH]cn1)C(=O)N[C@@H](CCCCN)C(=O)NCC(=O)N1[C@H](C(=O)N[C@@H](Cc2ccc(I)cc2)C(=O)N2CCC[C@H]2C(=O)N[C@H](Cc2ccc(-c3ccccc3)cc2)C(=O)O)C[C@@H]2CCCC[C@@H]21)C(=O)O
Regarding B3, the “EC50 Human APJ Receptor (GTPγS assay)” value in the assay with human APJ receptor stood at 6 nM. The “EC50 Rat APJ Receptor (GTPγS assay)” value with rat APJ receptor came to 9.29 nM.

B4: Apelin polypeptide SEQ ID NO: 314 (peptide)
peptide: Tridecanoyl-[γGlu][AEEA][AEEA][Nle][dR]Q[hArg]P[dR][NMeL]SHKG[Oic][Phe(4-I)]P[dBip]-OH
SMILES: CCCCCCCCCCCCC(=O)N[C@@H](CCC(=O)NCCOCCOCC(=O)NCCOCCOCC(=O)N[C@@H](CCCC)C(=O)N[C@H](CCCNC(=N)N)C(=O)N[C@@H](CCC(N)=O)C(=O)N[C@@H](CCCCNC(=N)N)C(=O)N1CCC[C@H]1C(=O)N[C@H](CCCNC(=N)N)C(=O)N(C)[C@@H](CC(C)C)C(=O)N[C@@H](CO)C(=O)N[C@@H](Cc1c[nH]cn1)C(=O)N[C@@H](CCCCN)C(=O)NCC(=O)N1[C@H](C(=O)N[C@@H](Cc2ccc(I)cc2)C(=O)N2CCC[C@H]2C(=O)N[C@H](Cc2ccc(-c3ccccc3)cc2)C(=O)O)C[C@@H]2CCCC[C@@H]21)C(=O)O
For B4, in the assay with human APJ receptor, the “EC50 Human APJ Receptor (GTPγS assay)” value was 2.77 nM. Further, the “EC50 Rat APJ Receptor (GTPγS assay)” value in the assay with rat APJ receptor turned out to be 6.81 nM.

B5: Apelin polypeptide SEQ ID NO: 320 (peptide)
peptide: Tridecanoyl-[γGlu][AEEA][AEEA][Nle][dR]Q[hArg]P[dR][NMeL]AHKG[Oic][Phe(4-I)]P[dBip]-OH
SMILES: CCCCCCCCCCCCC(=O)N[C@@H](CCC(=O)NCCOCCOCC(=O)NCCOCCOCC(=O)N[C@@H](CCCC)C(=O)N[C@H](CCCNC(=N)N)C(=O)N[C@@H](CCC(N)=O)C(=O)N[C@@H](CCCCNC(=N)N)C(=O)N1CCC[C@H]1C(=O)N[C@H](CCCNC(=N)N)C(=O)N(C)[C@@H](CC(C)C)C(=O)N[C@@H](C)C(=O)N[C@@H](Cc1c[nH]cn1)C(=O)N[C@@H](CCCCN)C(=O)NCC(=O)N1[C@H](C(=O)N[C@@H](Cc2ccc(I)cc2)C(=O)N2CCC[C@H]2C(=O)N[C@H](Cc2ccc(-c3ccccc3)cc2)C(=O)O)C[C@@H]2CCCC[C@@H]21)C(=O)O
B5: the “EC50 Human APJ Receptor (GTPγS assay)” value with human APJ receptor was found to be 17.9 nM. The “EC50 Rat APJ Receptor (GTPγS assay)” value with rat APJ receptor is 37.7 nM.

B6: Apelin polypeptide SEQ ID NO: 326 (peptide)
peptide: Tridecanoyl-[γGlu][AEEA][AEEA][Nle][dR]Q[hArg]P[dR][NMeL]SAKG[Oic][Phe(4-I)]P[dBip]-OH
SMILES: CCCCCCCCCCCCC(=O)N[C@@H](CCC(=O)NCCOCCOCC(=O)NCCOCCOCC(=O)N[C@@H](CCCC)C(=O)N[C@H](CCCNC(=N)N)C(=O)N[C@@H](CCC(N)=O)C(=O)N[C@@H](CCCCNC(=N)N)C(=O)N1CCC[C@H]1C(=O)N[C@H](CCCNC(=N)N)C(=O)N(C)[C@@H](CC(C)C)C(=O)N[C@@H](CO)C(=O)N[C@@H](C)C(=O)N[C@@H](CCCCN)C(=O)NCC(=O)N1[C@H](C(=O)N[C@@H](Cc2ccc(I)cc2)C(=O)N2CCC[C@H]2C(=O)N[C@H](Cc2ccc(-c3ccccc3)cc2)C(=O)O)C[C@@H]2CCCC[C@@H]21)C(=O)O
As for B6, in the assay with human APJ receptor, the “EC50 Human APJ Receptor (GTPγS assay)” value amounted to 14.8 nM. In the assay with rat APJ receptor, the “EC50 Rat APJ Receptor (GTPγS assay)” value came out at 17.8 nM.

B7: Apelin polypeptide SEQ ID NO: 338 (peptide)
peptide: Tridecanoyl-[γGlu][AEEA][AEEA][Nle]QRP[hArg][Cha]SHKG[Oic][Nle]P[Phe(4-Cl)]-OH
SMILES: CCCCCCCCCCCCC(=O)N[C@@H](CCC(=O)NCCOCCOCC(=O)NCCOCCOCC(=O)N[C@@H](CCCC)C(=O)N[C@@H](CCC(N)=O)C(=O)N[C@@H](CCCNC(=N)N)C(=O)N1CCC[C@H]1C(=O)N[C@@H](CCCCNC(=N)N)C(=O)N[C@@H](CC1CCCCC1)C(=O)N[C@@H](CO)C(=O)N[C@@H](Cc1c[nH]cn1)C(=O)N[C@@H](CCCCN)C(=O)NCC(=O)N1[C@H](C(=O)N[C@@H](CCCC)C(=O)N2CCC[C@H]2C(=O)N[C@@H](Cc2ccc(Cl)cc2)C(=O)O)C[C@@H]2CCCC[C@@H]21)C(=O)O
As for B7, in the assay with human APJ receptor, the “EC50 Human APJ Receptor (GTPγS assay)” value amounted to 0.56 nM. Also, the “EC50 Rat APJ Receptor (GTPγS assay)” value in the assay with rat APJ receptor was 0.766 nM.

B8: Apelin polypeptide SEQ ID NO: 347 (peptide)
peptide: Tridecanoyl-[γGlu][AEEA][AEEA][Nle]QRP[hArg][Cha]AAKG[Oic][Nle]P[Phe(4-Cl)]-OH
SMILES: CCCCCCCCCCCCC(=O)N[C@@H](CCC(=O)NCCOCCOCC(=O)NCCOCCOCC(=O)N[C@@H](CCCC)C(=O)N[C@@H](CCC(N)=O)C(=O)N[C@@H](CCCNC(=N)N)C(=O)N1CCC[C@H]1C(=O)N[C@@H](CCCCNC(=N)N)C(=O)N[C@@H](CC1CCCCC1)C(=O)N[C@@H](C)C(=O)N[C@@H](C)C(=O)N[C@@H](CCCCN)C(=O)NCC(=O)N1[C@H](C(=O)N[C@@H](CCCC)C(=O)N2CCC[C@H]2C(=O)N[C@@H](Cc2ccc(Cl)cc2)C(=O)O)C[C@@H]2CCCC[C@@H]21)C(=O)O
For the molecule B8, the “EC50 Human APJ Receptor (GTPγS assay)” value in the assay with human APJ receptor was determined as 1.89 nM. Moreover, the “EC50 Rat APJ Receptor (GTPγS assay)” value with rat APJ receptor was 2.13 nM.

B9: Apelin polypeptide SEQ ID NO: 328 (peptide)
peptide: Tridecanoyl-[γGlu][AEEA][AEEA][hArg][dR]Q[Nle]P[dR][NMeL]SAKG[Oic][Phe(4-I)]P[dBip]-OH
SMILES: CCCCCCCCCCCCC(=O)N[C@@H](CCC(=O)NCCOCCOCC(=O)NCCOCCOCC(=O)N[C@@H](CCCCNC(=N)N)C(=O)N[C@H](CCCNC(=N)N)C(=O)N[C@@H](CCC(N)=O)C(=O)N[C@@H](CCCC)C(=O)N1CCC[C@H]1C(=O)N[C@H](CCCNC(=N)N)C(=O)N(C)[C@@H](CC(C)C)C(=O)N[C@@H](CO)C(=O)N[C@@H](C)C(=O)N[C@@H](CCCCN)C(=O)NCC(=O)N1[C@H](C(=O)N[C@@H](Cc2ccc(I)cc2)C(=O)N2CCC[C@H]2C(=O)N[C@H](Cc2ccc(-c3ccccc3)cc2)C(=O)O)C[C@@H]2CCCC[C@@H]21)C(=O)O
Turning to B9, the “EC50 Human APJ Receptor (GTPγS assay)” value with human APJ receptor is 9.17 nM. The “EC50 Rat APJ Receptor (GTPγS assay)” value with rat APJ receptor is 7.7 nM.

B10: Apelin polypeptide SEQ ID NO: 557 (peptide)
peptide: Tridecanoyl-[γGlu][AEEA][AEEA][Tle][hArg]P[dR][Cha]SHKG[Oic][Nle]P[Phe(4-Cl)]-OH
SMILES: CCCCCCCCCCCCC(=O)N[C@@H](CCC(=O)NCCOCCOCC(=O)NCCOCCOCC(=O)N[C@H](C(=O)N[C@@H](CCCCNC(=N)N)C(=O)N1CCC[C@H]1C(=O)N[C@H](CCCNC(=N)N)C(=O)N[C@@H](CC1CCCCC1)C(=O)N[C@@H](CO)C(=O)N[C@@H](Cc1c[nH]cn1)C(=O)N[C@@H](CCCCN)C(=O)NCC(=O)N1[C@H](C(=O)N[C@@H](CCCC)C(=O)N2CCC[C@H]2C(=O)N[C@@H](Cc2ccc(Cl)cc2)C(=O)O)C[C@@H]2CCCC[C@@H]21)C(C)(C)C)C(=O)O
B10: in the assay with human APJ receptor, the “EC50 Human APJ Receptor (GTPγS assay)” value is 6.12 nM. In the assay with rat APJ receptor, the “EC50 Rat APJ Receptor (GTPγS assay)” value amounted to 10.4 nM.
